According to patent US20220348659A1 (TWIST BIOSCIENCE, published 2022):

T1: cyno CD3 epsilon (cyno (cynomolgus monkey), UniProt Q95LI5 22-117, limits assumed)
T1 construct: Used as a soluble protein target in panning; the construct is not described; also called cCD3; cCD3 epsilon
T1 sequence (looked up): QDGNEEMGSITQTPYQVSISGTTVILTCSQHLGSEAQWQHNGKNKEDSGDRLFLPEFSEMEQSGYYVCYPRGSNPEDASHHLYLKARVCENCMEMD


Columns and labels:
[1] = target: cyno CD3 epsilon (cyno (cynomolgus monkey)) (UniProt Q95LI5); assay: sensorgrams with fits, Response (RLU) against Time (s); instrument not named; species not printed on the panel: cyno by the order of the panels (11I-11K human, 11L-11N cyno, after the text's 67 nM and 107 nM)
human CD3 epsilon [2] = target: T2, human CD3 epsilon (human, UniProt P07766 23-126, limits assumed); assay: sensorgrams with fits, Response (RLU) against Time (s); instrument not named; species not printed on the panel: human by the order of the panels (11I-11K human, 11L-11N cyno, after the text's 67 nM and 107 nM)
T2 construct: Used as a soluble protein target in panning; the construct is not described; also called hCD3; hCD3 epsilon

[3] = target: CD3 on human CD8+ T cells; assay: flow cytometry titration, RL1-H MFI against [IgG] nM; cells not named on this panel, the points are those of the CD8+ T-Cell curves of FIGS. 12E-12G
[4] = target: CD3 on human CD8+ T cells; assay: flow cytometry titration on CD8+ T cells, MFI against [IgG] nM
[5] = target: CD3 on human CD8+ T cells; assay: flow cytometry titration, MFI against [IgG] nM; cells not named on this panel, the value and the curve are those of the CD8+ T-Cell curve of FIG. 12F
CD3 on Jurkat cells = assay: flow cytometry titration on Jurkat cells, MFI against [IgG] nM
cyno CD3 epsilon [6] = target: T1, cyno CD3 epsilon; assay: sensorgrams with fits, Response (RLU) against Time (s); instrument not named; panel shaded grey; species not printed on the panel: cyno by the order of the panels (11I-11K human, 11L-11N cyno, after the text's 67 nM and 107 nM)
human CD3 epsilon [7] = target: T2, human CD3 epsilon; assay: method not stated; human CD3 epsilon
human CD3 epsilon [8] = target: T2, human CD3 epsilon; assay: flow cytometry on Expi293 cells overexpressing hCD3e, antibody at 100 nM; bar = MFI ratio (OE/parent), 1 = parent cells
cyno CD3 epsilon [9] = target: T1, cyno CD3 epsilon; assay: flow cytometry on Expi293 cells overexpressing cynoCD3e, antibody at 100 nM; bar = MFI ratio (OE/parent)

T2 sequence (P07766 23-126 limits assumed): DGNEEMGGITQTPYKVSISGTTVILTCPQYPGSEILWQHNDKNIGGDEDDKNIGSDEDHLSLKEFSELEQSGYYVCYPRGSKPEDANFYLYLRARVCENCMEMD
CD3 on human CD8+ T cells, sequence (chain, as listed by the source limits assumed): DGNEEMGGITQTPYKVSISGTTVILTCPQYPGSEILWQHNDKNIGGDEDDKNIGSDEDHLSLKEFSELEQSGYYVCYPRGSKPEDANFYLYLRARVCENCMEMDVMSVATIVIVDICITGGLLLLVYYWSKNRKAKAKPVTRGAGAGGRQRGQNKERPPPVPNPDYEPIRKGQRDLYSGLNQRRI

Molecule | binding result (human CD3 epsilon [8]) | binding result (cyno CD3 epsilon [9]) | other results
muSP34 (antibody) | – | – | Kd [1]: 38 nM; Kd (human CD3 epsilon [2]): < 0.0019 nM
R&D MAB100 (antibody) | – | – | EC50 (read off the curve) [3]: 3 nM; EC50 [4]: 3.05 nM; EC50 [5]: 3.05 nM; EC50 (CD3 on Jurkat cells): 0.537 nM
CD3-56-11 (antibody, V domains shown) VH: EVQLLESGGGLVQPGGSLRLSCAASGFRFSTYAMNWVRQAPGKGLEWVSGISGSGGSKYHADSVKGRFTISRDNSKNTLYLQMNSLRAEDTAVYYCARDSLTTRGYYYYMDVWGQGTLVTVSS VL: DIQMTQSQSSLSASVGDRVTITCRASQSIRTSLNWYQQKPGKAPKLLIYAASRLQSGVPSRFSGSGSGTDFTLTISSLQPEDFATYYCQQSYSTLYSFGGGTKVEIK | – | – | Kd (human CD3 epsilon [2]): 130 nM; Kd (cyno CD3 epsilon [6]): 162000 nM
CD3-56-05 (antibody, V domains shown, the text speaks of CD3 epsilon IgGs from a Fab library on the DP47 framework; also called CD3-56-5; CD-3-56-5) VH: EVQLLESGGGLVQPGGSLRLSCAASGFTFSSYAMNWVRQAPGKGLEWVSAVSGSGGRTYYADSVKGRFTISRDNSKNTLYLQMNSLRAEDTAVYYCARERATTLDYWGQGTLVTVSS VL: DIQMTQSPSSLSASVGDRVTITCRASQTIYSHLNWYQQKPGKAPKLLIYVASRLQSGVPSRFSGSGSGTDFTLTISSLQPEDFATYYCQQSFSTSWTFGGGTKVEIK | – | – | Kd (human CD3 epsilon [7]): 67 nM
CD3-252-22 (VHH, also called CD3-252-022) VHH: EVQLVESGGGLVQPGGSLRLSCAASGNIFTRHIMGWFRQAPGKEREFVAAITNGGSTKYADSVKGRFTISADNSKNTAYLQMNSLKPEDTAVYYCARQDYYDSSGHIRYWGQGTLVTVSS | binds | – | –
CD3-252-29 (VHH, also called CD3-252-029) VHH: EVQLVESGGGLVQPGGSLRLSCAASGTTFRINVMGWFRQAPGKEREFVAAITSSGSSTLYADSVKGRFTISADNSKNTAYLQMNSLKPEDTAVYYCARGGGYHRLWGQGTLVTVSS | binds | no binding (tested: 100 nM) | –

Now from value to molecule, other results behind:

binding result (human CD3 epsilon [8]) | binding result (cyno CD3 epsilon [9]) | Molecule | other results
binds | no binding (tested: 100 nM) | CD3-252-24 (VHH, also called CD3-252-024) VHH: EVQLVESGGGLVQPGGSLRLSCAASGITFKRYVMGWFRQAPGKEREFVAAITNGGSTKYADSVKGRFTISADNSKNTAYLQMNSLKPEDTAVYYCARDLSAGPGKAVYWGQGTLVTVSS | –
binds | no binding (tested: 100 nM) | CD3-252-10 (VHH, also called CD3-252-010) VHH: EVQLVESGGGLVQPGGSLRLSCAASGRSLYDRAYVMGWFRQAPGKEREFVAAINRSGSALYADSVKGRFTISADNSKNTAYLQMNSLKPEDTAVYYCAAKAVTSRDHEWGQGTLVTVSS | –
binds | no binding (tested: 100 nM) | CD3-252-5 (VHH, also called CD3-252-005) VHH: EVQLVESGGGLVQPGGSLRLSCAASGRISNINIMGWFRQAPGKEREFVAAISWNSGTTRYADSVKGRFTISADNSKNTAYLQMNSLKPEDTAVYYCASQGPGLYGSGSYLRYWGQGTLVTVSS | –
